The values below come from paper PMC7913596, “Tribbles Pseudokinase 2 (TRIB2) Regulates Expression of Binding Partners in Bovine Granulosa Cells” (International Journal of Molecular Sciences, 2021).

In assay [1] the target is pAcGFP1-53 (positive control bait) (UniProt P02340). The experiment in a line: co-IP; Matchmaker Co-IP system in co-transfected HEK 293 cells (pAcGFP1 bait, ProLabel prey); read-out by ProLabel enzyme complementation, luminescence (RLU); fold induction 60 min after substrate against the experimental control (pAcGFP1-TRIB2 and ProLabel-empty vector).
Assay [2] addresses T1, Tribbles pseudokinase 2 (TRIB2), AcGFP1 fusion in HEK 293 cells (pAcGFP1-TRIB2) (bovine, UniProt Q5GLH2 1-343).
T1 construct: bovine TRIB2 (NM_178317.3); also called TRIB2 bait plasmid; source: HEK 293, transfected, in lysate
T1 sequence (looked up): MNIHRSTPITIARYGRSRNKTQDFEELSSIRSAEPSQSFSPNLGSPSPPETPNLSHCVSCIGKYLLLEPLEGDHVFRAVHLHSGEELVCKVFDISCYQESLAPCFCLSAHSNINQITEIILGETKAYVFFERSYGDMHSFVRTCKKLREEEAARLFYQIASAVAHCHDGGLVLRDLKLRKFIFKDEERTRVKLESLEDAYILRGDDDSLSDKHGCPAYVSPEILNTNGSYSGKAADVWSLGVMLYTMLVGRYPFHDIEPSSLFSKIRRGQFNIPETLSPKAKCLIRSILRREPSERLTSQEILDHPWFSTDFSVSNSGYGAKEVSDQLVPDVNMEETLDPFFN
Described as above. The note with it: partners not purified.

Sequence of pAcGFP1-53 (positive control bait) (P02340 whole entry, the tested form may be a part): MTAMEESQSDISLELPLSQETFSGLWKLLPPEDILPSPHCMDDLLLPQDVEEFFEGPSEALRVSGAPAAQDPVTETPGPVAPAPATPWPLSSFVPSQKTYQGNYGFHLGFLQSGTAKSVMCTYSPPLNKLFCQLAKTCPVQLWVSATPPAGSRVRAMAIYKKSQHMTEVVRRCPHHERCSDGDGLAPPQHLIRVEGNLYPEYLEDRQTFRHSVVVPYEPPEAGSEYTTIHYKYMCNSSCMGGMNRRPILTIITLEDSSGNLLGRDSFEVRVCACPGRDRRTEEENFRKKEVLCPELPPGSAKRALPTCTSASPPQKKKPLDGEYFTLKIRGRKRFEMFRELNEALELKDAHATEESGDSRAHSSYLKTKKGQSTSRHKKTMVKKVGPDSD

Take “ProLabel-T (positive control prey) (natural protein)”: the fold induction of ProLabel enzymatic activity against the experimental control in assay [1] is 4.7 fold.

B1: inhibin subunit beta A (INHBA), ProLabel prey in HEK 293 cells (natural protein, Bos taurus, UniProt P07995 21-425, looked up)
chain: SPTPGSEGHSAAPDCPSCALATLPKDVPNSQPEMVEAVKKHILNMLHLKKRPDVTQPVPKAALLNAIRKLHVGKVGENGYVEIEDDIGRRAEMNELMEQTSEIITFAESGTARKTLHFEISKEGSDLSVVERAEIWLFLKVPKANRTRSKVTIRLFQQQKHLQGSLDAGEEAEEVGLKGEKSEMLISEKVVDARKSTWHIFPVSSCIQRLLDQGKSSLDIRIACEQCQETGASLVLLGKKKKKEEEGEGKKRDGEGGAGGDEEKEQSHRPFLMLQARQSEDHPHRRRRRGLECDGKVNICCKKQFFVSFKDIGWNDWIIAPSGYHANYCEGECPSHIAGTSGSSLSFHSTVINHYRMRGHSPFANLKSCCVPTKLRPMSMLYYDDGQNIIKKDIQNMIVEECGCS
notes: Bos taurus inhibin subunit beta A; Seen at around 50 kDa after co-IP and at 44 kDa in extracts not subjected to co-IP; The insert may be the cDNA fragment found in the two-hybrid screen; source: HEK 293, transfected, in lysate
In the case of B1, in assay [2], the “fold induction of ProLabel enzymatic activity against the experimental control” value is 9.2 fold.

B2: inositol polyphosphate phosphatase-like 1 (INPPL1), ProLabel prey in HEK 293 cells (natural protein, Bos taurus, UniProt E1BBJ7 1-1264, looked up)
chain: MASACGAPGPGGAGPGAALGSPAPAWYHRDLSRAAAEELLARAGRDGSFLVRDSESVAGAFALCVLYQKHVHTYRILPDGEDFLAVQTSQGVPVRRFQTLGELISLYAQPNQGLVCALLLPVEREREPDPPDDRDASDGEDEKPPLPPRSGSTSISAPMGPSSPPAAPETPTTPAAESAPNGLSTVSHEYLKGSYGLDLEAVRGGASNLPHLTRTLATSCRRLHSEVDKVLSGLEILSKVFDQQSSPMVTRLLQQQNPPQTGEQELESLVLKLSVLKDFLSGIQKKALKALQDMSSTAPPAPLQPSTRKAKTIPVQAFEVKLDVTLGDLTKIGKSQKFTLSVDVEGGRLVLLRRQRDSQEDWTTFTHDRIRQLIKSQRVQNKLGVVFEKEKDRTQRKDFIFVSARKREAFCQLLQLMKNKHSKQDEPDMISIFIGTWNMGSVPPPKNVTSWFTSKGLGKTLDEVTVTIPHDIYVFGTQENSVGDREWLDLLRGGLKELTDLDYRPIAMQSLWNIKVAVLVKPEHENRISHVSTSSVKTGIANTLGNKGAVGVSFMFNGTSFGFVNCHLTSGNEKTARRNQNYLDILRLLTLGDRQLSAFDISLRFTHLFWFGDLNYRLDMDIQEILNYISRKEFEPLLRVDQLNLEREKHKVFLRFSEEEISFPPTYRYERGSRDTYAWHKQKPTGVRTNVPSWCDRILWKSYPETHIICNSYGCTDDIVTSDHSPVFGTFEVGVTSQFISKKGLSKTSDQAYIEFESIEAIVKTASRTKFFIEFYSTCLEEYKKSFENDAQSSDNINFLKVQWSSRQLPTLNPILADIEYLQDQHLLLTVKSMDGYESYGECVVALKSMIGSTAQQFLTFLSHRGEETGNIRGSMKVRVPTERLGTRERLYEWISIDKDEAGAKSKAPSVSRGSQDPRSGSRKPASTEASCPLSKLFEEPEKPPPTGRPPAPPRAAPREEPLTPRLKPEGAPELEGVVAPPPKNSFNNPAYYVLEGVPHQLLPPEPPSPARAPVPPATKNKVAITVPAPQLGRHRPPRAGEGSSSDEDSGGTLPPPDFPPPPLPDSAIFLPPGLDPLPGPVIRGRSGGEARGPPPPKAHPRPPLPPGPSPASTFLGDVASGDDRSCSVLQMAKTLSEVDYAPAGPGRAMLLPGPLELQPPRGLPSDYGRPLSFPPPRIRESIQEDLAEEAPCPQVGRAGGLGEAGMGAWLRAIGLERYEEGLVHNGWDDLEFLSDITEEDLEEAGVQDPAHKRLLLDTLQLSK
notes: Bos taurus inositol polyphosphate phosphatase-like 1; Bands at around 50 kDa and 100 kDa after co-IP, around 160 kDa in extracts not subjected to co-IP; The insert may be the cDNA fragment found in the two-hybrid screen; also called SHIP2; SH2-containing inositol 5'-phosphatase 2; source: HEK 293, transfected, in lysate
Take B2: the “fold induction of ProLabel enzymatic activity against the experimental control” value in assay [2] is 2.3 fold.
